Test results reported in patent US20250115669A1, “FGFR1/KLB Targeting Agonistic Antigen-Binding Proteins and Conjugates Thereof with GLP-1R Agonistic Peptides” (SANOFI, priority 2020, published 2025).
Positions count from the first letter of the chain named. In names and notes the source's numbering stands.

T1: human beta-Klotho (Homo sapiens, UniProt Q86Z14)
T1 sequence (Q86Z14 1-1044): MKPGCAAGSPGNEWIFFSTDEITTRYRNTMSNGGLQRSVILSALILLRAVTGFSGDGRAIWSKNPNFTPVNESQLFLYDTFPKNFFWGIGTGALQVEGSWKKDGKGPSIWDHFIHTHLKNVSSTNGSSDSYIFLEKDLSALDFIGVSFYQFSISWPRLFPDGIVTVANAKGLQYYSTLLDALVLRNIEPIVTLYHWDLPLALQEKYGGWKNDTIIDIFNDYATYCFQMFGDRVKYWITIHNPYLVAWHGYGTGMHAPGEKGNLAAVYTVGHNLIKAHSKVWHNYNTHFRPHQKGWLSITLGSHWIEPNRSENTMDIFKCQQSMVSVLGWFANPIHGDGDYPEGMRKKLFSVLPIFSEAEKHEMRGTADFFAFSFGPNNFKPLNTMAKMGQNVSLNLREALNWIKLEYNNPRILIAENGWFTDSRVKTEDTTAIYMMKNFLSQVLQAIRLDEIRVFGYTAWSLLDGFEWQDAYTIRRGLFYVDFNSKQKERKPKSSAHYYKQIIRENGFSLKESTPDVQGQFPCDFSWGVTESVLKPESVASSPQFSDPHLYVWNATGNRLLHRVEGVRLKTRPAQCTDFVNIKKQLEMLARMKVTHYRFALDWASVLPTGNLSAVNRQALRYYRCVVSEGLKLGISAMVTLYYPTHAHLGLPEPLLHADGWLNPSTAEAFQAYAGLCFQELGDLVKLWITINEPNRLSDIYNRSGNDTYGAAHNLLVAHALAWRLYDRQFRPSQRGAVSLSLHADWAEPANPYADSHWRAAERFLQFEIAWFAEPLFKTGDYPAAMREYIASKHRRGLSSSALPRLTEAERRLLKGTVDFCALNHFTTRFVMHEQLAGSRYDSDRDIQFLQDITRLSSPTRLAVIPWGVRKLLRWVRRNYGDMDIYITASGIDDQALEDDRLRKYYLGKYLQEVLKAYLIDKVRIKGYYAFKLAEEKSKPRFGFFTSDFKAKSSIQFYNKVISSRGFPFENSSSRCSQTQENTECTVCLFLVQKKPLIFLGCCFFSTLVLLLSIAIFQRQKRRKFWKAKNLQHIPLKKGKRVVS

B1: Ab0394: IgG4 PE; 16H7 VL (Y48del, D95S, W90F, S1C, S94C); 16H7 VH (M34V, H52W, I83T, D109E) (antibody)
VH: QVTLKESGPVLVKPTETLTLTCTVSGFSLNNARVGVSWIRQPPGKALEWLAWIFSNDEKSYSTSLKSRLTISKDTSKSQVVLTMTNMDPVDTATYYCARSVVTGGYYYEGMDVWGQGTTVTVSS
light: CYVLTQPPSVSVAPGQTARITCGGNNIGSESVHWYQQKPGQAPVLVVDDSDRPSGIPERFSGSNSGNTATLTISRVEAGDEADYYCQVFDGNCSHVVFGGGTKLTVLGQPKANPTVTLFPPSSEELQANKATLVCLISDFYPGAVTVAWKADGSPVKAGVETTKPSKQSNNKYAASSYLSLTPEQWKSHRSYSCQVTHEGSTVEKTVAPTECS
B2: Ab0326: IgG4 PE; 16H7 VL (N25S, D49Y, D50E, D91E, N93S); 16H7 VH (M34V, I83T, D109E) (antibody)
VH: B1 VH with W52H
light: SYVLTQPPSVSVAPGQTARITCGGSNIGSESVHWYQQKPGQAPVLVVYYESDRPSGIPERFSGSNSGNTATLTISRVEAGDEADYYCQVWEGSSDHVVFGGGTKLTVLGQPKANPTVTLFPPSSEELQANKATLVCLISDFYPGAVTVAWKADGSPVKAGVETTKPSKQSNNKYAASSYLSLTPEQWKSHRSYSCQVTHEGSTVEKTVAPTECS
B3: Ab0406: IgG4 PE; 16H7 VL (Y48del, D95T, W90F, S1C, S94C); 16H7 VH (M34V, H52S, F54W, I83T, D109E) (antibody)
VH: B1 VH with W52S, F54W
light: B1 light with S94T
B4: Ab0399: IgG4 PE; 16H7 VL (Y48del, D95A, W90F, S94C, H96C); 16H7 VH (M34V, F54W, I83T, D109E) (antibody)
VH: B1 VH with W52H, F54W
light: B1 light with C1S, S94A, H95C
B5: Ab0327: IgG4 PE; 16H7 VL (N25S, D49Y, D50Y, D91E, N93E); 16H7 VH (M34V, I83T, D109E) (antibody)
VH: B1 VH with W52H
light: B2 light with E50Y, S93E
B6: Ab0416: IgG4 PE; 16H7 VL (N25S, D49Y, D50E, D91E, N93E); 16H7 VH (M34V, I83T, D109E) (antibody)
VH: B1 VH with W52H
light: B2 light with S93E
B7: Ab0402: IgG4 PE; 16H7 VL (Y48del, D95A, W90F, S94C, H96C); 16H7 VH (M34V, H52W, I83T, D109E) (antibody)
VH: B1 VH
light: B1 light with C1S, S94A, H95C
B8: Ab0328: IgG4 PE; 16H7 VL (N25S, D49Y, D50A, D91A, N93S); 16H7 VH (M34V, I83T, D109E) (antibody)
VH: B1 VH with W52H
light: B2 light with E50A, E91A
B9: Ab0398: IgG4 PE; 16H7 VL (Y48del, D95A, W90F, S1C, S94C); 16H7 VH (M34V, H52S, F54W, I83T, D109E) (antibody)
VH: B1 VH with W52S, F54W
light: B1 light with S94A
B10: Ab0401: IgG4 PE; 16H7 VL (Y48del, D95A, W90F); 16H7 VH (M34V, H52W, I83T, D109E) (antibody)
VH: B1 VH
light: B1 light with C1S, C93S, S94A
B11: Ab0397: IgG4 PE; 16H7 VL (Y48del, D95A, W90F, S1C, S94C); 16H7 VH (M34V, F54W, I83T, D109E) (antibody)
VH: B1 VH with W52H, F54W
light: B1 light with S94A
B12: Ab0408: IgG4 PE; 16H7 VL (Y48del, D95T, W90F); 16H7 VH (M34V, H52W, I83T, D109E) (antibody)
VH: B1 VH
light: B1 light with C1S, C93S, S94T
B13: Ab0404: IgG4 PE; 16H7 VL (Y48del, D95T, W90F); 16H7 VH (M34V, F54W, I83T, D109E) (antibody)
VH: B1 VH with W52H, F54W
light: B1 light with C1S, C93S, S94T
B14: Ab0400: IgG4 PE; 16H7 VL (Y48del, D95A, W90F, S94C, H96C); 16H7 VH (M34V, H52S, F54W, I83T, D109E) (antibody)
VH: B1 VH with W52S, F54W
light: B1 light with C1S, S94A, H95C
B15: Ab0395: IgG4 PE; 16H7 VL (Y48del, D95A, W90F); 16H7 VH (M34V, F54W, I83T, D109E) (antibody)
VH: B1 VH with W52H, F54W
light: B1 light with C1S, C93S, S94A
B16: Ab0417: IgG4 PE; 16H7 VL (N25S, D49Y, D50E, D91H, N93E); 16H7 VH (M34V, I83T, D109E) (antibody)
VH: B1 VH with W52H
light: B2 light with E91H, S93E
B17: Ab0329: IgG4 PE; 16H7 VL (N25S, D49Y, D50S, D91A, N93S); 16H7 VH (M34V, I83T, D109E) (antibody)
VH: B1 VH with W52H
light: B2 light with E50S, E91A
B18: Ab0410: IgG4 PE; 16H7 VL (Y48del, D95S, W90Y); 16H7 VH (M34V, I83T, D109E) (antibody)
VH: B1 VH with W52H
light: B1 light with C1S, F89Y, C93S
B19: Ab0405: IgG4 PE; 16H7 VL (Y48del, D95T, W90F); 16H7 VH (M34V, H52S, F54W, I83T, D109E) (antibody)
VH: B1 VH with W52S, F54W
light: B1 light with C1S, C93S, S94T
B20: Ab0403: IgG4 PE; 16H7 VL (Y48del, D95A, W90F, S1C, S94C); 16H7 VH (M34V, H52W, I83T, D109E) (antibody)
VH: B1 VH
light: B1 light with S94A
B21: Ab0396: IgG4 PE; 16H7 VL (Y48del, D95A, W90F); 16H7 VH (M34V, H52S, F54W, I83T, D109E) (antibody)
VH: B1 VH with W52S, F54W
light: B1 light with C1S, C93S, S94A

Biological target: T1, human beta-Klotho
Assay: SPR off-rate screening of antibody mutants (human beta-Klotho captured by anti-His antibody)
Format: binding
Settings: mean, n=3
Experimental: Screening of antibody mutants for binding to human beta-Klotho was determined in a different SPR assay set up. Human beta-Klotho was affinity captured by an anti-His antibody (from His capture kit, GE Healthcare) that was immobilized to a series S CM5 chip (GE Healthcare) by amine reactive coupling as described above. The antibody samples were used as analytes at 50 nmol/L concentration. Association time was 240 sec and dissociation time was 300 sec. Chip surfaces were regenerated using the regeneration solution supplied with the His capture kit. The off-rates (kd) were determined using single exponential fitting in the Biacore 8K Evaluation Software version 1.1.1.7442 (GE Healthcare).

Molecule	koff human KLB
B1	no binding
B2	0.00175 s⁻¹
B3	no binding
B4	no binding
B5	0.0003459 s⁻¹
B6	0.00107 s⁻¹
B7	no binding
B8	invalid fit
B9	no binding
B10	no binding
B11	no binding
B12	no binding
B13	no binding
B14	no binding
B15	no binding
B16	0.0003027 s⁻¹
B17	invalid fit
B18	no binding
B19	no binding
B20	no binding
B21	no binding
